Like-named read-outs stand apart in the source and are kept apart here.
Experiments:
Experiment in all cases: cell-based or functional assay
[1] = biological target: T1, mouse high-affinity IL-2 receptor IL-2Rαβγ on cells (mouse, UniProt P01590 22-268; P16297 27-539; P34902 23-369)
T1 sequence (looked up) 1: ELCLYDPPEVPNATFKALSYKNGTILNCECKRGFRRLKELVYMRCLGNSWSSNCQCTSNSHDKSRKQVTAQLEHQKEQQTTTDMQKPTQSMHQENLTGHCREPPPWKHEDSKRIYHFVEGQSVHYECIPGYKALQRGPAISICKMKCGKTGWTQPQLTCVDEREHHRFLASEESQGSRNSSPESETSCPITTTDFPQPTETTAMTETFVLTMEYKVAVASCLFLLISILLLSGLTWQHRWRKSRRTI
T1 sequence (looked up) 2: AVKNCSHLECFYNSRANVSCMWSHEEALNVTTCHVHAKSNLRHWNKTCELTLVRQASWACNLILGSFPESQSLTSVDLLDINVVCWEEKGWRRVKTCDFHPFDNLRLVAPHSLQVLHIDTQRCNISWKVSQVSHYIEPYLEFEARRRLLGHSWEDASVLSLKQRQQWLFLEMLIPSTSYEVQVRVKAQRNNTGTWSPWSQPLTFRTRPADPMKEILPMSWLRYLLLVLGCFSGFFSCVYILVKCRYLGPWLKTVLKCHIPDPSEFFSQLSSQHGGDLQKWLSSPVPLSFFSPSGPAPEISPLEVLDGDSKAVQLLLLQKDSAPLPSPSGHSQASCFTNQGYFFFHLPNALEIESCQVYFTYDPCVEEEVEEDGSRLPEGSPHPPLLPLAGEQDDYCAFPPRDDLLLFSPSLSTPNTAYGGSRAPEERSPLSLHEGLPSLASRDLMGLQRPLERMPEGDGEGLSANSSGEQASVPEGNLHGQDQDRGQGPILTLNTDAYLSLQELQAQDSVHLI
T1 sequence (looked up) 3: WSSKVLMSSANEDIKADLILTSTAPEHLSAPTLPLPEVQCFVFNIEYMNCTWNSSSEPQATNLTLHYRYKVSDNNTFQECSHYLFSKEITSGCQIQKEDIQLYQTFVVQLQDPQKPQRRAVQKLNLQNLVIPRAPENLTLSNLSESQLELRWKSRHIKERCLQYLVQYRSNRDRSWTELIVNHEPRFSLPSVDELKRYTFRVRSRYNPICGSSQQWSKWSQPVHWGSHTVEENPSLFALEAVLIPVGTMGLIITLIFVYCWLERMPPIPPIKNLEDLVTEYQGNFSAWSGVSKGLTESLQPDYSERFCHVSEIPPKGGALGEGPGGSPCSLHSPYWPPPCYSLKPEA

[2] = biological target: T2, mouse intermediate-affinity IL-2 receptor IL-2Rβγ on cells (mouse, UniProt P16297 27-539; P34902 23-369)
T2 sequence (looked up) 1: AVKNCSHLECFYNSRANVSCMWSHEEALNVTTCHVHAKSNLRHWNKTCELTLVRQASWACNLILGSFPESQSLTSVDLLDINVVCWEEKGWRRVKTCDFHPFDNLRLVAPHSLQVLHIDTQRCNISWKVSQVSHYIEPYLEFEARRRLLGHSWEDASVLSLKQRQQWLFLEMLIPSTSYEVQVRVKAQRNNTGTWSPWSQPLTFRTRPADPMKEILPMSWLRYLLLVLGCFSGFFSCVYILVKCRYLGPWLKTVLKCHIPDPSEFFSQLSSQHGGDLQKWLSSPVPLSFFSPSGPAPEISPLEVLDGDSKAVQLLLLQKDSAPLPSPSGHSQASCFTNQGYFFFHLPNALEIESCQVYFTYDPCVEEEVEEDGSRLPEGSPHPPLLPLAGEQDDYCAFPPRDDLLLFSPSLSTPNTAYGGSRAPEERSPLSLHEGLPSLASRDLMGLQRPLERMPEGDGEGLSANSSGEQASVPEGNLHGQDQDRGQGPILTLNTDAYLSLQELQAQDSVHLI
T2 sequence (looked up) 2: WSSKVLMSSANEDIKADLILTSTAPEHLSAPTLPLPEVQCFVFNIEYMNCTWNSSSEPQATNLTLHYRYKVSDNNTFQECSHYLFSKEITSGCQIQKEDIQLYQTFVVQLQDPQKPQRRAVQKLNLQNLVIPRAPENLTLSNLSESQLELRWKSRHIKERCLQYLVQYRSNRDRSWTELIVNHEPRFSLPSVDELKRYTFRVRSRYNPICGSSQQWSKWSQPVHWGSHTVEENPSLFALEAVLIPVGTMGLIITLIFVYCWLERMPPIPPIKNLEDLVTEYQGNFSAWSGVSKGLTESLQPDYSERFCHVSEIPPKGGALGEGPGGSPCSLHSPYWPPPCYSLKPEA

[3] = biological target: T3, human intermediate-affinity IL-2 receptor IL-2Rβγ on cells (human, UniProt P14784 27-551; P31785 23-369)
T3 sequence (looked up) 1: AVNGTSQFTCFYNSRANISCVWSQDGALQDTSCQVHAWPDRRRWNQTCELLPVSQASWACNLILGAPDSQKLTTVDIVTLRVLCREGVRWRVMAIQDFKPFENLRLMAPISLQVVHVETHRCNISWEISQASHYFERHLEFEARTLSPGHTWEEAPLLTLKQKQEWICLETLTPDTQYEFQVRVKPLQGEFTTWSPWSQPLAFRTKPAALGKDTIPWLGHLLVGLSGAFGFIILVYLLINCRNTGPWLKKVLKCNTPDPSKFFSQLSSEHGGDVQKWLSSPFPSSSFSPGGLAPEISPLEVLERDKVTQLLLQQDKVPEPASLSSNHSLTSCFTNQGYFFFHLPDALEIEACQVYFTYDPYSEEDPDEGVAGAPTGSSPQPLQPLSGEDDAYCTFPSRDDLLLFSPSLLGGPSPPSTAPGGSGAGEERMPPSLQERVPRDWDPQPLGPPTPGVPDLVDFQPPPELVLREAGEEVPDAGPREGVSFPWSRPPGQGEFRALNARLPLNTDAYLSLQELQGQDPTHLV
T3 sequence (looked up) 2: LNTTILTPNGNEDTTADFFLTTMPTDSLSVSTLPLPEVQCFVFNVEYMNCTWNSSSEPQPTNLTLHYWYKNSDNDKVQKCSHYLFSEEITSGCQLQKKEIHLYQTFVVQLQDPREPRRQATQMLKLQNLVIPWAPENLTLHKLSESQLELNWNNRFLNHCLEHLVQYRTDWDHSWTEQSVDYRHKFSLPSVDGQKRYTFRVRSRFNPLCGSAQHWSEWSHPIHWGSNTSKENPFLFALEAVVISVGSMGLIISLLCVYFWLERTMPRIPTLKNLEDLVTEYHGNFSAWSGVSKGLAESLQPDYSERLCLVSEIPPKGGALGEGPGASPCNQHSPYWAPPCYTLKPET

[4] = biological target: T4, human high-affinity IL-2 receptor IL-2Rαβγ on cells (human, UniProt P01589 22-272; P14784 27-551; P31785 23-369)
T4 sequence (looked up) 1: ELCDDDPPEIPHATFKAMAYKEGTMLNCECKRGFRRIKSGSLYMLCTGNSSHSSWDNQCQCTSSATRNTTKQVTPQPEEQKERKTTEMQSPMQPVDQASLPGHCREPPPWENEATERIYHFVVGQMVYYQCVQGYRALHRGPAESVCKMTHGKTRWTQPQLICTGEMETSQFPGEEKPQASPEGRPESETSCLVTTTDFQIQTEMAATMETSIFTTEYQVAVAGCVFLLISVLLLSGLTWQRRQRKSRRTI
T4 sequence (looked up) 2: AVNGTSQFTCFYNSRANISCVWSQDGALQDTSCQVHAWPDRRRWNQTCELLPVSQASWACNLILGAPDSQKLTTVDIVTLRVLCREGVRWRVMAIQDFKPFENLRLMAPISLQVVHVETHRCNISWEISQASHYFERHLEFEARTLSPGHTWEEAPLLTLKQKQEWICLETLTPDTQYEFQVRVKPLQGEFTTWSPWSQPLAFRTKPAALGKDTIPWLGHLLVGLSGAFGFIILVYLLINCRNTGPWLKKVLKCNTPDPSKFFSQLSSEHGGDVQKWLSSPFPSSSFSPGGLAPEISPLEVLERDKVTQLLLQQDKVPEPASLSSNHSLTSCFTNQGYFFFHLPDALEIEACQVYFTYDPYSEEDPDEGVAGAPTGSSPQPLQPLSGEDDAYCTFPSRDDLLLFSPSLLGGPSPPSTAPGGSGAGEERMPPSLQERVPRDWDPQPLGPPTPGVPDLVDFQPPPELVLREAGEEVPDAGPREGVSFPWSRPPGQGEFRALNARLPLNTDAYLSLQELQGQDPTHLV
T4 sequence (looked up) 3: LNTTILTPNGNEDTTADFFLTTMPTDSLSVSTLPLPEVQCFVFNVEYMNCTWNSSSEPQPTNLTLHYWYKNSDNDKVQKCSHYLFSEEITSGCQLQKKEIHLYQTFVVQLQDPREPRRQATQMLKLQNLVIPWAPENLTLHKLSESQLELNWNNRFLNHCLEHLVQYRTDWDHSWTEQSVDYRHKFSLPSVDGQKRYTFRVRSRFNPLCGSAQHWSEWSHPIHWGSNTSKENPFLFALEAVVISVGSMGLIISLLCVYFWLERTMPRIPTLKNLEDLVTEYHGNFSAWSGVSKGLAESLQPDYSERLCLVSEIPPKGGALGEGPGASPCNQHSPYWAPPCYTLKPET

[5] = biological target: T3, human intermediate-affinity IL-2 …; remark: listed apart in the source
[6] = biological target: T3, human intermediate-affinity IL-2 …; remark: listed apart in the source

B1: CP-trIL-2 082 (ligand)
chain: LRPRDLISNINVIVLELKGSETTPTSSSTKKTQLQLEHLLLDLQMILNGINNYKNPTIVEFLNRWITFSQSIISTLTGGGGSGGGGSELKHLQSLEEELKDLEEVLN
% pSTAT5 in mouse splenocytes at Low IL-2v concentration (2.5 nM per paragraph 254); western blot, pSTAT5/STAT5 normalised to 001 High [1]: 16.7% | % pSTAT5 in mouse splenocytes at High IL-2v concentration (25 nM per paragraph 254); western blot, pSTAT5/STAT5 normalised to 001 High [2]: 25.2% | % pSTAT5 in human PBMC at High IL-2v concentration (25 nM per paragraph 254); western blot, pSTAT5/STAT5 normalised to 001 High [3]: 45.8% | % pSTAT5 in human PBMC at Low IL-2v concentration (2.5 nM per paragraph 254); western blot, pSTAT5/STAT5 normalised to 001 High [4]: 15.6%

B2: CP-trIL-2 062 (ligand)
chain: TIVEFLNRWITFSQSIISTLTGGGGSGGGGSELKHLQSLEEELKDLEEVLNLAQSKNFHLRPRDLISNINVIVLELKGSETTPTSSSTKKTQLQLEHLLLDLQMILNGIN
% pSTAT5 in mouse splenocytes at Low IL-2v concentration (2.5 nM per paragraph 254); western blot, pSTAT5/STAT5 normalised to 001 High [1]: 13.8% | % pSTAT5 in mouse splenocytes at High IL-2v concentration (25 nM per paragraph 254); western blot, pSTAT5/STAT5 normalised to 001 High [2]: 20.5% | % pSTAT5 in human PBMC at High IL-2v concentration (25 nM per paragraph 254); western blot, pSTAT5/STAT5 normalised to 001 High [3]: 12.1% | % pSTAT5 in human PBMC at Low IL-2v concentration (2.5 nM per paragraph 254); western blot, pSTAT5/STAT5 normalised to 001 High [4]: 10.7%

B3: CP-trIL-2 073 (ligand)
chain: ELKHLQSLEEELKDLEEVLNLAQSKNFHLRPRDLISNINVIVLELKGSETTPTSSSTKKTQLQLEHLLLDLQMILNGINNYKNPTIVEKLNRWITKSQSIISTLT
EC50 (read off the curve): STAT5 phosphorylation in HH cells [5]: ~10 nM

B4: CP-trIL-2 011 (ligand)
chain: PTSSSTKKTQLQLEHLLLDLQMILNGINNYKNPLRPRDLISNINVIVLELKGSETTELKHLQSLEEELKPLEEVLNLAQSKNFHTIVEFLNRWITFSQSIISTLT
EC50 (read off the curve): STAT5 phosphorylation in HH cells [6]: ~6 nM

B5: CP-trIL-2 032 (ligand)
chain: ELKHLQSLEEELKDLEEVLNLAQSKNFHTIVEFLNRWITFSQSIISTLTGGGGSGGGGSPTSSSTKKTQLQLEHLLLDLQMILNGINNYKNPLRPRDLISNINVIVLELKG
% pSTAT5 in mouse splenocytes at Low IL-2v concentration (2.5 nM per paragraph 254); western blot, pSTAT5/STAT5 normalised to 001 High [1]: 11.5% | % pSTAT5 in mouse splenocytes at High IL-2v concentration (25 nM per paragraph 254); western blot, pSTAT5/STAT5 normalised to 001 High [2]: 18.9% | % pSTAT5 in human PBMC at High IL-2v concentration (25 nM per paragraph 254); western blot, pSTAT5/STAT5 normalised to 001 High [3]: 7.6% | % pSTAT5 in human PBMC at Low IL-2v concentration (2.5 nM per paragraph 254); western blot, pSTAT5/STAT5 normalised to 001 High [4]: 10.4%
